Measurements as given in the supplement of paper PMC12764529.
± gives the half width of the 95% confidence interval.

What was measured:
[1] = folding stability dG unfold from chymotrypsin proteolysis; higher = more stable
Procedure, shortened: (§1)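 Unfolding free energy was derived, per protease or combined, against a sequence-predicted unfolded-state K50 and a shared folded-state K50, starting from K50 inferred by Bayesian fitting of sequencing counts. Digestion with trypsin and chymotrypsin was carried out on designed mini-proteins under 80 residues without cysteine in a PA-tagged cDNA display construct. Only designs with AlphaFold2 dimer inter-PAE above 15 were kept.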

[2] = folding stability dG unfold (combined trypsin and chymotrypsin); higher = more stable
Procedure, shortened: as §1

[3] = folding stability dG unfold from trypsin proteolysis; higher = more stable
Procedure, shortened: as §1

Row | Sequence | folding stability dG unfold [1] | folding stability dG unfold [2] | folding stability dG unfold [3]
1 | SAGGGLANLSLEEIRQLLLEKFPELPVEVKVTPVDEKDGVVLVTVRPPLPDGSTVESEEELPLEPGLSAGGS [r16_564_JUSTAS] | -1.28 ± 0.41 kcal/mol | 0.229 ± 0.074 kcal/mol | 0.661 ± 0.025 kcal/mol
2 | SAGGGLEEFARRLAEELARLLGGPNVPFELEGVVVFGFRLRPDGTPEPTTSRPVVVRVRFETPGGDPSAGGS [r16_156_TrMRF] | 4.09 ± 0.044 kcal/mol | 3.58 ± 0.1 kcal/mol | 2.7 ± 0.11 kcal/mol
3 | SAGGGLPASDPDVTATTETFTVTYTEATPEGNPVTTTTTTTVTTYTAPDGAVTTTTTTTSTTVTPASTSAGG [r13_51_JUSTAS] | 1.77 ± 0.023 kcal/mol | 1.76 ± 0.038 kcal/mol | 1.7 ± 0.062 kcal/mol
4 | SAGGGLSPDTPVNYVVFVELPNGERRTFNVPGPAGRPEVAIAIAEKLREEGYEVKAIFPGEGVIVVGSAGGS [r8_497_TrMRF] | 3.117 ± 0.0089 kcal/mol | 2.98 ± 0.08 kcal/mol | 2.88 ± 0.12 kcal/mol
5 | SAGGGMKISTVETKPESDGSIVITIKVYDANGNEIKTYTIPLKGLSNVTITIPVANNPIEVSIPATLSSAGG [r13_427_JUSTAS] | 2.05 ± 0.078 kcal/mol | 1.84 ± 0.13 kcal/mol | 1.48 ± 0.037 kcal/mol
6 | SAGGGMLLTTTQTITLPNGTLLTVTSTFTLTPPAVPVPVVELDESSIAEYDPATGILTDPSVPTPIPVPSAG [r5_807_JUSTAS] | 0.596 ± 0.11 kcal/mol | 0.766 ± 0.1 kcal/mol | 0.733 ± 0.066 kcal/mol
7 | SAGGGMNISVDPNQSVTIPVTRIENGVPVETTVTISLPAGSTISPEGDNIIINYPHTGQTITLPTTLISAGG [r13_275_JUSTAS] | -0.174 ± 0.1 kcal/mol | 0.862 ± 0.041 kcal/mol | 1.36 ± 0.043 kcal/mol
8 | SAGGGMSTLVRLPPGGVEEREVPPGTEADLNAEFSPESKLVVRTFDPATGRWTETVYEPGGVPTVLSSSAGG [r13_74_JUSTAS] | 3.65 ± 0.21 kcal/mol | 3.41 ± 0.32 kcal/mol | 2.91 ± 0.082 kcal/mol
9 | SAGGGMVITTPQTTSTTFSPPTAPAVPAPFTQSSSFTIGNTKVTVTTTQAAGSGTTTVTLTTILPPLASAGG [r13_998_JUSTAS] | 1.18 ± 0.089 kcal/mol | 1.12 ± 0.065 kcal/mol | 1 ± 0.034 kcal/mol
10 | SAGGGNIRPVRIERLPDGSLLIVLVADSPDDAFSDESTLDALPGEEELLEARYDPSTGRVLLVRRFRPSAGG [r13_413_TrMRF] | 1.71 ± 0.064 kcal/mol | 1.55 ± 0.071 kcal/mol | 1.33 ± 0.055 kcal/mol
11 | SAGGGNKVLLVVEAESPEVLEEKIREAEEAFGFTVTPLRREPLPDDRYRLVLEIDAPPEVVEFFKKESAGGS [r8_357_TrMRF] | 1.35 ± 0.092 kcal/mol | 1.3 ± 0.045 kcal/mol | 1.15 ± 0.032 kcal/mol
12 | SAGGGPLKPILLKVTAKVEKNGKLLEVEAEIAVPLPNKPITLEEIRKILEEALPPDVKIVSLELDPESAGGS [r16_407_TrMRF] | 2.6 ± 0.075 kcal/mol | 2.67 ± 0.21 kcal/mol | 2.99 ± 0.2 kcal/mol
13 | SAGGGPPPVEVTTSTDPSTGKVTTTVTAGPAGTRFTSSSPNGSSTTTTTVTYVGDTWEVSTSSTSSSSAGGS [r16_631_JUSTAS] | 1.37 ± 0.11 kcal/mol | 1.31 ± 0.1 kcal/mol | 1.21 ± 0.061 kcal/mol
14 | SAGGGPVTEETYTIKRPDGTELVVTRYYFPGTGETVVRIYPPSTKTPLSTVPLSEASPELLAEIARRSAGGS [r8_32_JUSTAS] | 2.108 ± 0.013 kcal/mol | 1.79 ± 0.03 kcal/mol | 1.2 ± 0.027 kcal/mol
15 | SAGGGPVTVTVTFKPPSTGLTSTVTLPFPNVSSYEEAKERAEELAKEAGGPIETITFTDPATGKAHPLSAGG [r13_771_JUSTAS] | 0.213 ± 0.27 kcal/mol | 0.646 ± 0.23 kcal/mol | 0.449 ± 0.068 kcal/mol
16 | SAGGGPVVLTDPVKTEKSPDGTTYTLTREVFYDPSRGEPLKVRFTLTKVTNYPDGVKTETLEEKEVALSAGG [r13_596_JUSTAS] | 1.33 ± 0.19 kcal/mol | 1.09 ± 0.16 kcal/mol | 0.816 ± 0.081 kcal/mol
17 | SAGGGQTIEIKFPVPNENYRVYLMVYDPDKPISVEPQRFDPPDGEVTDKIKLPPDVKIGFMAFPPEDMSAGG [r13_977_TrROS] | 0.966 ± 0.13 kcal/mol | 0.823 ± 0.048 kcal/mol | 0.631 ± 0.033 kcal/mol
18 | SAGGGRARLIELKEARFNPETGVLELTALVEFPEIGTLVVFRIRVPLEGEPRIEIEVEVYPIKPGEASAGGS [r16_207_TrMRF] | 4.31 ± 0.056 kcal/mol | 4 ± 0.091 kcal/mol | 3.17 ± 0.07 kcal/mol
19 | SAGGGRVAVLKVEVRNPETGETTEVELVLPLPPEMTPEEAEEAAREAARTLAESTGVEVEIKSVELLSAGGS [r8_312_TrMRF] | 3.278 ± 0.031 kcal/mol | 3.46 ± 0.053 kcal/mol | 3.77 ± 0.068 kcal/mol
20 | SAGGGSFINISKKEIAEAISKLIGKDYPLEDVKVSVTTLPENKTIINVEIKLPNTTETLYIPILFDVSAGGS [r16_42_TrMRF] | 1.7 ± 0.018 kcal/mol | 1.91 ± 0.068 kcal/mol | 2.09 ± 0.094 kcal/mol
21 | SAGGGSLSDIATVDTSSYTDPNNPASVTVTNVTIPDGSTVTVTYNPTTGTVTVTTATDGTTTTTTIPSSAGG [r13_960_JUSTAS] | 0.917 ± 0.056 kcal/mol | 1.42 ± 0.15 kcal/mol | 1.89 ± 0.19 kcal/mol

Row | Sequence | folding stability dG unfold [1] | folding stability dG unfold [2] | folding stability dG unfold [3]
22 | SAGGGSMEEARRLIEEIAEEVKAKGVKVKVRITFGPDPKVLSIEIFSPDEPIVDNGGPGLVTLTFDIPSAGG [r13_693_JUSTAS] | 2.778 ± 0.023 kcal/mol | 2.55 ± 0.063 kcal/mol | 2.07 ± 0.057 kcal/mol
23 | SAGGGSMPASITTEVTETTTPDATVTKSTVYYPDTGKWLEETTTTGPTTTITTTKFPDGSTTVTTAASAGGS [r16_657_JUSTAS] | -1.18 ± 0.28 kcal/mol | -0.175 ± 0.11 kcal/mol | 0.275 ± 0.052 kcal/mol
24 | SAGGGSMSESLSLVEEEIKVGETVVKVKRLIYPVSGTALVEITKPGGGPIGVFNTTISPSTGGVELLSAGGS [r16_798_JUSTAS] | -1.38 ± 0.57 kcal/mol | < -1 kcal/mol | -1.04 ± 0.17 kcal/mol
25 | SAGGGSSSTTTSTTTTTSTSIEPLPGDREVVVTTTTTTTTTTTTTTPPDGSSTSTTTTTTTTTTTVTLASAG [r5_428_JUSTAS] | 1.45 ± 0.082 kcal/mol | 1.93 ± 0.13 kcal/mol | 2.57 ± 0.23 kcal/mol
26 | SAGGGSTVTTFDPSTGKTTVSIGTDPATGERTVTIVLKNGTPVTVPGPFPSVEEAEAAAAAAAAAAASAGGS [r16_319_JUSTAS] | 0.824 ± 0.041 kcal/mol | 0.818 ± 0.097 kcal/mol | 0.762 ± 0.043 kcal/mol
27 | SAGGGSVTVSLEGNTTYVRISREDGPERTYTFPQPNGEPLTFTEAPGRPGLITITRPATGEPVVLALSAGGS [r16_198_JUSTAS] | 0.0166 ± 0.31 kcal/mol | 0.219 ± 0.18 kcal/mol | 0.281 ± 0.18 kcal/mol
28 | SAGGGTFYLVVKVEKVAPNPETGELVEERLELVIPGKAPNAVSEEDLKAFVDALLPLGYKVEVELREGSAGG [r13_926_TrMRF] | 2.07 ± 0.12 kcal/mol | 2.07 ± 0.2 kcal/mol | 1.91 ± 0.12 kcal/mol
29 | SAGGGTRTINFDSPEDAEDAIEDWPDWDKVTISVPSNGEPQSIPLKIKPPPPPKYKRDENGKPEPEPDSAGG [r13_183_TrROS] | 2.95 ± 0.19 kcal/mol | 2.65 ± 0.25 kcal/mol | 2.08 ± 0.14 kcal/mol
30 | SAGGGTTITLSFADGTTKTLTLPGLTEVVEEPGRVVVRADVPERRVVVTFEPATGTITVEEFAPEEPVSAGG [r13_392_JUSTAS] | 2.27 ± 0.057 kcal/mol | 1.86 ± 0.25 kcal/mol | 0.818 ± 0.1 kcal/mol
31 | SAGGGVPLTRSEPLGEIEFPEENIKLKISRYTSPLDGTEYIEITTDYGEGTSTSIYPPGEIEEILGGSAGGS [r16_603_JUSTAS] | 1.39 ± 0.19 kcal/mol | 0.909 ± 0.18 kcal/mol | 0.666 ± 0.12 kcal/mol
32 | SAGGGVTITASPDGTVTITIGGKPITVPVHPGATLEFRVEPTPDGRPAVTITWTSPDGTPYTFTFTGSAGGS [r16_231_TrMRF] | 5.015 ± 0.036 kcal/mol | 4.89 ± 0.053 kcal/mol | 4.23 ± 0.14 kcal/mol
33 | SAGGGVTITLKTADGKTLTLEIPGLTSVTVEPDKVTVEFEIPDYRITITFNPSTGTVEIKISHPDEPESAGG [r13_392_TrMRF] | 3.93 ± 0.19 kcal/mol | 3.8 ± 0.2 kcal/mol | 3.37 ± 0.19 kcal/mol
34 | SAGGGWKPIGKEEITLPFGIKVTVDIWTWPDGMIMIMIEIEIPVPPPKPPVPPMSPEDMKDMNEDNGSAGGS [r16_6_TrROS] | 3.8 ± 0.24 kcal/mol | 3.2 ± 0.43 kcal/mol | 2.06 ± 0.14 kcal/mol
35 | SAGGGYRAVAVFERPDGRREVVFIEFESEEEALREAEEIARRFGLRLKELRVYPVEPLPPVRPELAGSAGGS [r8_364_TrMRF] | 5.17 ± 0.083 kcal/mol | 4.88 ± 0.09 kcal/mol | 3.49 ± 0.089 kcal/mol
36 | SAGGHHHHHHHHIDGKFRSEEEAKKLKEEIEKELRAKGYTDIEVEVEVKVEEPPPRRPRPGSPAYTLGSAGG [r13_6_JUSTAS] | 0.573 ± 0.11 kcal/mol | 0.955 ± 0.34 kcal/mol | 1.45 ± 0.16 kcal/mol
37 | SAGGIDLDDLPPGDIFIFIKIKMEPVKVDDPDGKEYNRMEIEIFIFRFDPPNGKIQFEPIPMEFYIRSAGGS [r8_486_TrROS] | 3.28 ± 0.064 kcal/mol | 3.19 ± 0.23 kcal/mol | 2.83 ± 0.25 kcal/mol
38 | SAGGIDLSKLPKNSIVVITKVKVYPTKVGEPDGEGEGYVEVELRVFRNIPPTGKILSSPLPVKFKIASAGGS [r8_486_TrMRF] | 0.987 ± 0.25 kcal/mol | 1.17 ± 0.12 kcal/mol | 1.19 ± 0.04 kcal/mol
39 | SAGGIEELAKALGIEEVEVTSIDPETREVTVRVRVRGPDGEERTLTVKIRLEPAPPPVRTFSEEELKSSAGG [r13_608_TrROS_Hall] | 1.06 ± 0.04 kcal/mol | 1.45 ± 0.087 kcal/mol | 1.78 ± 0.029 kcal/mol
40 | SAGGIEVDPEHKHVHIHIPNGNIPELLDLIEDAPGDHVSIHFYNPGNGKPRRFTMPRKEARKFLEQFSAGGS [r16_797_TrROS] | 0.834 ± 0.086 kcal/mol | 1.04 ± 0.044 kcal/mol | 1.13 ± 0.033 kcal/mol
41 | SAGGIIEIDPNGWVIRIEMYPPDGKPPKHTIPFPNATPEELIDELKDWADQLPNPGHKVKIDEITPMPSAGG [r13_29_TrROS] | 0.372 ± 0.17 kcal/mol | 0.177 ± 0.086 kcal/mol | 0.052 ± 0.071 kcal/mol
42 | SAGGILDLAAERNAVSVEVLEVNPEPPTVTVRLTYRNAAGEPRTATFTVELPPPAPPVPLVLPGEATFSAGG [r13_608_TrMRF] | 2.46 ± 0.11 kcal/mol | 1.85 ± 0.089 kcal/mol | 0.735 ± 0.059 kcal/mol
